Substitutions are numbered along the chain they refer to. Numbers in names are those of the source. Blank lines part the entries; values can stand above or below the molecule they belong to.
Biological target: T1, hIL-11R (Homo sapiens, UniProt Q14626)
T1 sequence (Q14626 23-422): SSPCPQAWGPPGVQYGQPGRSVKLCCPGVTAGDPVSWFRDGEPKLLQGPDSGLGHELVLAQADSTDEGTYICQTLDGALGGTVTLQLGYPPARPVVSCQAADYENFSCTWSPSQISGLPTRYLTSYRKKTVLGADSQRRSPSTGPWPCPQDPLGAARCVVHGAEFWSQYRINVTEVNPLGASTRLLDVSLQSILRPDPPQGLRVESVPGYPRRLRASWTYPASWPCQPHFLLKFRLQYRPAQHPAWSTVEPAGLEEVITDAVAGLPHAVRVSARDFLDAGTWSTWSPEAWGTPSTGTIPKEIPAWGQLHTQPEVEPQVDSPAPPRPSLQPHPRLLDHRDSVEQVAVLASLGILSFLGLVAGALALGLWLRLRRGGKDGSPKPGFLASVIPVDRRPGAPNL
Assay: Alternate biolayer interferometry assay (AHC biosensors) ranking mAbs 16-32 against mAb5
Type: binding
Details: for ka / kd: AHC biosensors; for qualitative assessment: compared to mAb5 (comparator)
Text: A further series of antibodies were designed in which the residue at Kabat position 31 of the heavy chain was varied (mAbs 16-32). In this case an alternate biolayer interferometry assay was used to initially rank the antibodies compared to mAb5, the closest relative in sequence to mAbs 16-32. MAbs were loaded onto anti-human constant domain (AHC) biosensors (FortéBio) in 10×kinetics buffer consisting of PBS, 0.1% BSA, 0.02% polysorbate 20 (TWEEN™) for 120 s to achieve a spectral shift value of 0.8 to 1.2 nm. Association was carried out in the presence of 2-fold dilution series of hIL-11R and was allowed to proceed for 120 s. Dilution series started 10 nM. The dissociation in 10×kinetics buffer for 1200 s. Binding kinetic measurements were taken on an Octet RED96e instrument.

qualitative assessment: decreased
B2: mAb27: anti-IL-11Rα antibody, human IgG4 (S228P), kappa; VH SEQ ID NO: 245, VL SEQ ID NO: 246 (antibody, V domains shown)
VH: EVQLLESGGGLVQPGGSLRLSCAASGFTFSPYSMTWVRQAPGKGLEWVSSIVPYGDLTQYADSVKGRFTISRDNSKNTLYLQMNSLRAEDTAVYYCAKGPGWGSFDLWGRGTLVTVSS
VL: DIQMTQSPSSLSASVGDRVTITCQASQDINNYLNWYQQKPGKAPKLLIYDASNLQTGVPSRFSGSGSGTDFTFTISSLQPEDIATYYCQQHESQSPTFGPGTKVDIK
modifications: IgG4 S228P kappa constant regions; mAb27 VH Chain; mAb27 VL Chain

qualitative assessment: similar
B3: mAb28: anti-IL-11Rα antibody, human IgG4 (S228P), kappa; VH SEQ ID NO: 247, VL SEQ ID NO: 248 (antibody, V domains shown)
VH: B2 VH with P31R
VL: B2 VL
modifications: IgG4 S228P kappa constant regions; mAb28 VH Chain; mAb28 VL Chain

qualitative assessment: similar
B7: mAb24: anti-IL-11Rα antibody, human IgG4 (S228P), kappa; VH SEQ ID NO: 239, VL SEQ ID NO: 240 (antibody, V domains shown)
VH: B2 VH with P31L
VL: B2 VL
modifications: IgG4 S228P kappa constant regions; mAb24 VH Chain; mAb24 VL Chain

ka: 610000 M⁻¹ s⁻¹
kd: 1.8e-05 s⁻¹
potency compared to mAb5 by more detailed kinetic measurements (in words): further improved potency
qualitative assessment: improved/
B8: mAb29: anti-IL-11Rα antibody, human IgG4 (S228P), kappa; VH SEQ ID NO: 249, VL SEQ ID NO: 250 (antibody, V domains shown)
VH: B2 VH with P31S
VL: B2 VL
modifications: IgG4 S228P kappa constant regions; mAb29 VH Chain; mAb29 VL Chain

ka: 690000 M⁻¹ s⁻¹
kd: off-scale
potency compared to mAb5 by more detailed kinetic measurements (in words): further improved potency
qualitative assessment: improved/
B10: mAb31: anti-IL-11Rα antibody, human IgG4 (S228P), kappa; VH SEQ ID NO: 253, VL SEQ ID NO: 254 (antibody, V domains shown)
VH: B2 VH with P31V
VL: B2 VL
modifications: IgG4 S228P kappa constant regions; mAb31 VH Chain; mAb31 VL Chain

qualitative assessment: decreased
B11: mAb26: anti-IL-11Rα antibody, human IgG4 (S228P), kappa; VH SEQ ID NO: 243, VL SEQ ID NO: 244 (antibody, V domains shown)
VH: B2 VH with P31N
VL: B2 VL
modifications: IgG4 S228P kappa constant regions; mAb23 VH Chain; mAb26 VL Chaim

qualitative assessment: similar
B12: mAb25: anti-IL-11Rα antibody, human IgG4 (S228P), kappa; VH SEQ ID NO: 241, VL SEQ ID NO: 242 (antibody, V domains shown)
VH: B2 VH with P31M
VL: B2 VL
modifications: IgG4 S228P kappa constant regions; mAb25 VH Chain; mAb25 VL Chain

qualitative assessment: similar
B13: mAb32: anti-IL-11Rα antibody, human IgG4 (S228P), kappa; VH SEQ ID NO: 255, VL SEQ ID NO: 256 (antibody, V domains shown)
VH: B2 VH with P31Y
VL: B2 VL
modifications: IgG4 S228P kappa constant regions; mAb32 VH Chain; mAb32 VL Chain

qualitative assessment: decreased
B15: mAb30: anti-IL-11Rα antibody, human IgG4 (S228P), kappa; VH SEQ ID NO: 251, VL SEQ ID NO: 252 (antibody, V domains shown)
VH: B2 VH with P31T
VL: B2 VL
modifications: IgG4 S228P kappa constant regions; mAb30 VH Chain; mAb30 VL Chain

More lines, now with the values behind:

B1: mAb21: anti-IL-11Rα antibody, human IgG4 (S228P), kappa; VH SEQ ID NO: 233, VL SEQ ID NO: 234 (antibody, V domains shown)
VH: B2 VH with P31H
VL: B2 VL
modifications: IgG4 S228P kappa constant regions; mAb21 VH Chain; mAb21 VL Chain
ka: 750000 M⁻¹ s⁻¹
kd: off-scale
potency compared to mAb5 by more detailed kinetic measurements (in words): further improved potency
qualitative assessment: improved/

B4: mAb19: anti-IL-11Rα antibody, human IgG4 (S228P), kappa; VH SEQ ID NO: 229, VL SEQ ID NO: 230 (antibody, V domains shown)
VH: B2 VH with P31F
VL: B2 VL
modifications: IgG4 S228P kappa constant regions; mAb19 VH Chain; mAb19 VL Chain
qualitative assessment: similar

B5: mAb20: anti-IL-11Rα antibody, human IgG4 (S228P), kappa; VH SEQ ID NO: 231, VL SEQ ID NO: 232 (antibody, V domains shown)
VH: B2 VH with P31G
VL: B2 VL
modifications: IgG4 S228P kappa constant regions; mAb20 VH Chain; mAb20 VL Chain
qualitative assessment: similar

B6: mAb17: anti-IL-11Rα antibody, human IgG4 (S228P), kappa; VH SEQ ID NO: 225, VL SEQ ID NO: 226 (antibody, V domains shown)
VH: B2 VH with P31D
VL: B2 VL
modifications: IgG4 S228P kappa constant regions; mAb17 VH Chain; mAb17 VL Chain
qualitative assessment: decreased

B9: mAb16: anti-IL-11Rα antibody, human IgG4 (S228P), kappa; VH SEQ ID NO: 223, VL SEQ ID NO: 224 (antibody, V domains shown)
VH: B2 VH with P31A
VL: B2 VL
modifications: IgG4 S228P kappa constant regions; mAb16 VH Chain; mAb16 VL Chain
qualitative assessment: similar

B14: mAb18: anti-IL-11Rα antibody, human IgG4 (S228P), kappa; VH SEQ ID NO: 227, VL SEQ ID NO: 228 (antibody, V domains shown)
VH: B2 VH with P31E
VL: B2 VL
modifications: IgG4 S228P kappa constant regions; mAb18 VH Chain; mAb18 VL Chain
qualitative assessment: decreased

B16: mAb22: anti-IL-11Rα antibody, human IgG4 (S228P), kappa; VH SEQ ID NO: 235, VL SEQ ID NO: 236 (antibody, V domains shown)
VH: B2 VH with P31I
VL: B2 VL
modifications: IgG4 S228P kappa constant regions; mAb22 VH Chain; mAb22 VL Chain
qualitative assessment: similar

B17: mAb23: anti-IL-11Rα antibody, human IgG4 (S228P), kappa; VH SEQ ID NO: 237, VL SEQ ID NO: 238 (antibody, V domains shown)
VH: B2 VH with P31K
VL: B2 VL
modifications: IgG4 S228P kappa constant regions; mAb23 VH Chain; mAb23 VL Chain
ka: 720000 M⁻¹ s⁻¹
kd: off-scale
potency compared to mAb5 by more detailed kinetic measurements (in words): further improved potency
qualitative assessment: improved/
